The values that follow come from patent EP3388527.

The assay concerns the target T1, GP-1 (human, UniProt Q14242).
T1 chain: QATEYEYLDYDFLPETEPP
The assay can be described thus: SPR.

B1: SelK1 (antibody, V domains shown)
VH: QVQLQQSGPGLVKPSQTLSLTCAISGDSVSSNIAAWHWIRLSPSRGLEWLGRTYYRRSKWNYDYALSVKSRININPDTSKNLFSLQLNSVTPEDTAVYYCTRGGGRAHSAWGQGTLVTVSS
VL: EIVLTQSPGTLSVSPGERATLSCRASQSVSRSHLAWYQQKPGQAPRLLIFGASSRATGIPDRFSGSGSGTDFTLTISRLEPEDFAVYYCQQYGRPGVTFGQGTKVEIK
As to B1, the binding result is on record as “no binding”.
